Data reported in PMC12102759 (2025).

B1: ICA1L peptide 451-466 (Islet cell autoantigen 1-like protein), 16-mer library wild type / NSP16 (ORF1ab Nsp16, residues 6799-7088) (parent complex)
chain 1: QDMSAWFNLFADLDPL
chain 2: SSQAWQPGVAMPNLYKMQRMLLEKCDLQNYGDSATLPKGIMMNVAKYTQLCQYLNTLTLAVPYNMRVIHFGAGSDKGVAPGTAVLRQWLPTGTLLVDSDLNDFVSDADSTLIGDCATVHTANKWDLIISDMYDPKTKNVTKENDSKEGFFTYICGFIQQKLALGGSVAIKITEHSWNADLYKLMGHFAWWTAFVTNVNASSSEAFLIGCNYLGKPREQIDGYVMHANYIFWRNTNPIQLSSYSLFDMSKFPLKLRGTAVMSLKEGQINDMILSLLSKGRLIIRENNRVVI
B2: NOTCH4 peptide 1606-1621 (Neurogenic locus notch homolog protein 4), 16-mer library wild type / NSP9 (ORF1ab Nsp9, residues 4141-4253) (parent complex)
chain 1: QGAWLGAPEPWEPLLD
chain 2: NNELSPVALRQMSCAAGTTQTACTDDNALAYYNTTKGGRFVLALLSDLQDLKWARFPKSDGTGTIYTELEPPCRFVTDTPKGPKVKYLYFIKGLNNLNRGMVLGSLAATVRLQ

Variants of: B1
Assay: bait immobilised on MaxiSorp plates (10 µg), library pre-cleared on GST, 2 h binding at 4 °C, five washes; one round per day, days 1-4; value from days 2 and 3
In the case of chain 1 QDMTAWFNLFADLDPL [chain 1 S4T], the screen value is reported as 0.00139 average fractional NGS count over selection days 2 and 3 (reads of this peptide / all reads for the bait, averaged over ….
For chain 1 QDMSAWLNLFADLDPL [chain 1 F7L], the screen value was 0.000815 average fractional NGS count over selection days 2 and 3 (reads of this peptide / all reads for the bait, averaged over ….
In the case of chain 1 QDMSAWWNLFADLDPL [chain 1 F7W], the screen value is reported as 0.000183 average fractional NGS count over selection days 2 and 3 (reads of this peptide / all reads for the bait, averaged over ….
For chain 1 QDMSAWFNLFADLPPL [chain 1 D14P], the screen value was 0.000203 average fractional NGS count over selection days 2 and 3 (reads of this peptide / all reads for the bait, averaged over ….
With chain 1 QDMSAWFNLFADLEPL [chain 1 D14E] the screen value was 0.00108 average fractional NGS count over selection days 2 and 3 (reads of this peptide / all reads for the bait, averaged over ….
For chain 1 QDMSTWFNLFADLDPL [chain 1 A5T], the screen value was 0.00049 average fractional NGS count over selection days 2 and 3 (reads of this peptide / all reads for the bait, averaged over ….
chain 1 QDMSAWFNLFADWDPL [chain 1 L13W] was tested, and the screen value was 0.0001 average fractional NGS count over selection days 2 and 3 (reads of this peptide / all reads for the bait, averaged over ….
chain 1 QDMSAWFNLFADFDPL [chain 1 L13F] was tested, and the screen value was 8.42e-05 average fractional NGS count over selection days 2 and 3 (reads of this peptide / all reads for the bait, averaged over ….
With chain 1 QDMSAWFNLFADMDPL [chain 1 L13M] the screen value was 0.00451 average fractional NGS count over selection days 2 and 3 (reads of this peptide / all reads for the bait, averaged over ….
With chain 1 QDMSAWFNLFADLDPV [chain 1 L16V] the screen value was 0.000224 average fractional NGS count over selection days 2 and 3 (reads of this peptide / all reads for the bait, averaged over ….
In the case of chain 1 QDMSAWFNLFADLDPR [chain 1 L16R], the screen value is reported as 0.000401 average fractional NGS count over selection days 2 and 3 (reads of this peptide / all reads for the bait, averaged over ….
With chain 1 QDMSAWFNLFADLDPT [chain 1 L16T] the screen value was 0.000115 average fractional NGS count over selection days 2 and 3 (reads of this peptide / all reads for the bait, averaged over ….
For chain 1 QDMSAWFNLFADLDPY [chain 1 L16Y], the screen value was 0.00657 average fractional NGS count over selection days 2 and 3 (reads of this peptide / all reads for the bait, averaged over ….
For chain 1 QDMSAWFNLFADLDPM [chain 1 L16M], the screen value was 0.0149 average fractional NGS count over selection days 2 and 3 (reads of this peptide / all reads for the bait, averaged over ….
chain 1 QDMSAWFNLFADLDPW [chain 1 L16W] was tested, and the screen value was 0.000423 average fractional NGS count over selection days 2 and 3 (reads of this peptide / all reads for the bait, averaged over ….
For chain 1 QDMSAWFNLFADLDQL [chain 1 P15Q], the screen value was 0.000173 average fractional NGS count over selection days 2 and 3 (reads of this peptide / all reads for the bait, averaged over ….
In the case of chain 1 QDMSAWFNLFADLDNL [chain 1 P15N], the screen value is reported as 0.000142 average fractional NGS count over selection days 2 and 3 (reads of this peptide / all reads for the bait, averaged over ….
In the case of chain 1 QDMSAWFNLFADLDTL [chain 1 P15T], the screen value is reported as 0.00148 average fractional NGS count over selection days 2 and 3 (reads of this peptide / all reads for the bait, averaged over ….
With chain 1 QDMSAWFNLFADLDVL [chain 1 P15V] the screen value was 0.000993 average fractional NGS count over selection days 2 and 3 (reads of this peptide / all reads for the bait, averaged over ….
In the case of chain 1 QDMSAWFNLFADLDGL [chain 1 P15G], the screen value is reported as 0.000662 average fractional NGS count over selection days 2 and 3 (reads of this peptide / all reads for the bait, averaged over ….
For chain 1 QDMSAWFNLFAWLDPL [chain 1 D12W], the screen value was 0.00015 average fractional NGS count over selection days 2 and 3 (reads of this peptide / all reads for the bait, averaged over ….
With chain 1 QDMSAWFNLFAYLDPL [chain 1 D12Y] the screen value was 0.000481 average fractional NGS count over selection days 2 and 3 (reads of this peptide / all reads for the bait, averaged over ….
With chain 1 QDMSAWFNLFAHLDPL [chain 1 D12H] the screen value was 0.0543 average fractional NGS count over selection days 2 and 3 (reads of this peptide / all reads for the bait, averaged over ….
chain 1 QDMSAWFNLFGDLDPL [chain 1 A11G] was tested, and the screen value was 9.42e-05 average fractional NGS count over selection days 2 and 3 (reads of this peptide / all reads for the bait, averaged over ….
In the case of chain 1 QDISAWFNLFADLDPL [chain 1 M3I], the screen value is reported as 0.00221 average fractional NGS count over selection days 2 and 3 (reads of this peptide / all reads for the bait, averaged over ….
With chain 1 QSMSAWFNLFADLDPL [chain 1 D2S] the screen value was 0.000218 average fractional NGS count over selection days 2 and 3 (reads of this peptide / all reads for the bait, averaged over ….
chain 1 QDMSAWFNMFADLDPL [chain 1 L9M] was tested, and the screen value was 0.111 average fractional NGS count over selection days 2 and 3 (reads of this peptide / all reads for the bait, averaged over ….
chain 1 QDMSAWFHLFADLDPL [chain 1 N8H] was tested, and the screen value was 0.00331 average fractional NGS count over selection days 2 and 3 (reads of this peptide / all reads for the bait, averaged over ….
For chain 1 QDMSAWFGLFADLDPL [chain 1 N8G], the screen value was 0.000503 average fractional NGS count over selection days 2 and 3 (reads of this peptide / all reads for the bait, averaged over ….
For chain 1 QDMSAWFTLFADLDPL [chain 1 N8T], the screen value was 0.000466 average fractional NGS count over selection days 2 and 3 (reads of this peptide / all reads for the bait, averaged over ….

Variants of: B2
Assay: as above
In the case of chain 1 QGAWLGAPEPWIPLLD [chain 1 E12I], the screen value is reported as 0.000686 average fractional NGS count over selection days 2 and 3 (reads of this peptide / all reads for the bait, averaged over ….
With chain 1 QGAWLGAPEPWNPLLD [chain 1 E12N] the screen value was 0.00209 average fractional NGS count over selection days 2 and 3 (reads of this peptide / all reads for the bait, averaged over ….
With chain 1 QGAWLGAPEPWVPLLD [chain 1 E12V] the screen value was 0.00994 average fractional NGS count over selection days 2 and 3 (reads of this peptide / all reads for the bait, averaged over ….
With chain 1 QGAWLGAPEPWSPLLD [chain 1 E12S] the screen value was 0.00302 average fractional NGS count over selection days 2 and 3 (reads of this peptide / all reads for the bait, averaged over ….
In the case of chain 1 QGAWLGAPEPWMPLLD [chain 1 E12M], the screen value is reported as 0.00442 average fractional NGS count over selection days 2 and 3 (reads of this peptide / all reads for the bait, averaged over ….
In the case of chain 1 QGAWLGAPEPWDPLLD [chain 1 E12D], the screen value is reported as 0.000215 average fractional NGS count over selection days 2 and 3 (reads of this peptide / all reads for the bait, averaged over ….
chain 1 QGAWLGAPEPWPPLLD [chain 1 E12P] was tested, and the screen value was 0.00101 average fractional NGS count over selection days 2 and 3 (reads of this peptide / all reads for the bait, averaged over ….
For chain 1 QGAWLGAPEPWKPLLD [chain 1 E12K], the screen value was 0.00114 average fractional NGS count over selection days 2 and 3 (reads of this peptide / all reads for the bait, averaged over ….
For chain 1 NGAWLGAPEPWEPLLD [chain 1 Q1N], the screen value was 0.00294 average fractional NGS count over selection days 2 and 3 (reads of this peptide / all reads for the bait, averaged over ….
chain 1 WGAWLGAPEPWEPLLD [chain 1 Q1W] was tested, and the screen value was 0.000692 average fractional NGS count over selection days 2 and 3 (reads of this peptide / all reads for the bait, averaged over ….
For chain 1 DGAWLGAPEPWEPLLD [chain 1 Q1D], the screen value was 0.000709 average fractional NGS count over selection days 2 and 3 (reads of this peptide / all reads for the bait, averaged over ….
With chain 1 FGAWLGAPEPWEPLLD [chain 1 Q1F] the screen value was 0.000338 average fractional NGS count over selection days 2 and 3 (reads of this peptide / all reads for the bait, averaged over ….
For chain 1 MGAWLGAPEPWEPLLD [chain 1 Q1M], the screen value was 0.00503 average fractional NGS count over selection days 2 and 3 (reads of this peptide / all reads for the bait, averaged over ….
With chain 1 QGAWLGVPEPWEPLLD [chain 1 A7V] the screen value was 0.00673 average fractional NGS count over selection days 2 and 3 (reads of this peptide / all reads for the bait, averaged over ….
chain 1 QGAWLGLPEPWEPLLD [chain 1 A7L] was tested, and the screen value was 0.000927 average fractional NGS count over selection days 2 and 3 (reads of this peptide / all reads for the bait, averaged over ….
In the case of chain 1 QGAWLGTPEPWEPLLD [chain 1 A7T], the screen value is reported as 0.00295 average fractional NGS count over selection days 2 and 3 (reads of this peptide / all reads for the bait, averaged over ….
For chain 1 QGAWLGNPEPWEPLLD [chain 1 A7N], the screen value was 0.00161 average fractional NGS count over selection days 2 and 3 (reads of this peptide / all reads for the bait, averaged over ….
For chain 1 QGAWLGPPEPWEPLLD [chain 1 A7P], the screen value was 0.000551 average fractional NGS count over selection days 2 and 3 (reads of this peptide / all reads for the bait, averaged over ….
For chain 1 QGAWLGSPEPWEPLLD [chain 1 A7S], the screen value was 0.00083 average fractional NGS count over selection days 2 and 3 (reads of this peptide / all reads for the bait, averaged over ….
chain 1 QGAWLGYPEPWEPLLD [chain 1 A7Y] was tested, and the screen value was 0.000616 average fractional NGS count over selection days 2 and 3 (reads of this peptide / all reads for the bait, averaged over ….
In the case of chain 1 QGAWLGMPEPWEPLLD [chain 1 A7M], the screen value is reported as 0.000666 average fractional NGS count over selection days 2 and 3 (reads of this peptide / all reads for the bait, averaged over ….
With chain 1 QGAWLGWPEPWEPLLD [chain 1 A7W] the screen value was 0.000255 average fractional NGS count over selection days 2 and 3 (reads of this peptide / all reads for the bait, averaged over ….
In the case of chain 1 QGAWLGFPEPWEPLLD [chain 1 A7F], the screen value is reported as 0.000134 average fractional NGS count over selection days 2 and 3 (reads of this peptide / all reads for the bait, averaged over ….
chain 1 QGAWLGAPEQWEPLLD [chain 1 P10Q] was tested, and the screen value was 0.000676 average fractional NGS count over selection days 2 and 3 (reads of this peptide / all reads for the bait, averaged over ….
In the case of chain 1 QGAWLGAPEIWEPLLD [chain 1 P10I], the screen value is reported as 0.00391 average fractional NGS count over selection days 2 and 3 (reads of this peptide / all reads for the bait, averaged over ….
chain 1 QGAWLGAPETWEPLLD [chain 1 P10T] was tested, and the screen value was 0.00164 average fractional NGS count over selection days 2 and 3 (reads of this peptide / all reads for the bait, averaged over ….
